Key:
[1] = target: A2AR-Nluc-spacer (human adenosine A2A receptor fused to NanoLuc on the N-terminal end, with spacer) (human, UniProt P29274 1-412); assay: cell-based or functional assay
[2] = target: A2AR (human adenosine A2A receptor, non-fused) (human, UniProt P29274 1-412); assay: cell-based or functional assay
Chain of A2AR (human adenosine A2A receptor, non-fused) (P29274 whole entry, the tested form may be a part): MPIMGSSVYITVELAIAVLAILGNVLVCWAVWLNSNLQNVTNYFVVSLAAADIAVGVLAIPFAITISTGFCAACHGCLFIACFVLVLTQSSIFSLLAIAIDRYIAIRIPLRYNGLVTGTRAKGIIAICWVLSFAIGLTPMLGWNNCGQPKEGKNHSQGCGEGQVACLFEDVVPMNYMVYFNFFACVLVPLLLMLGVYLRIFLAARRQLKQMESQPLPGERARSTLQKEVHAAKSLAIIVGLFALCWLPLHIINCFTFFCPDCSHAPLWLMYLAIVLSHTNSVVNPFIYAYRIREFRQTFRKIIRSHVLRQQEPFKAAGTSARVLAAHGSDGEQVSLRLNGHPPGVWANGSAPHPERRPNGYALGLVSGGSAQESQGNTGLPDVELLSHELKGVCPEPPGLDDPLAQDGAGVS

Chain of A2AR-Nluc-spacer (human adenosine A2A receptor fused to NanoLuc on the N-terminal end, with spacer) (P29274 whole entry, the tested form may be a part): as above

B1: Bovine adenosine deaminase (ADA) (enzyme, UniProt P56658 1-363, looked up)
chain: MAQTPAFNKPKVELHVHLDGAIKPETILYYGRKRGIALPADTPEELQNIIGMDKPLSLPEFLAKFDYYMPAIAGCREAVKRIAYEFVEMKAKDGVVYVEVRYSPHLLANSKVEPIPWNQAEGDLTPDEVVSLVNQGLQEGERDFGVKVRSILCCMRHQPSWSSEVVELCKKYREQTVVAIDLAGDETIEGSSLFPGHVKAYAEAVKSGVHRTVHAGEVGSANVVKEAVDTLKTERLGHGYHTLEDATLYNRLRQENMHFEVCPWSSYLTGAWKPDTEHPVVRFKNDQVNYSLNTDDPLIFKSTLDTDYQMTKNEMGFTEEEFKRLNINAAKSSFLPEDEKKELLDLLYKAYGMPSPASAEQCL
EC50: concentration of ADA (0.1 ng/ml to 10 ug/ml) providing half-maximal increase in binding of 2.2 nM [3H]ZM 241385 to membranes of transfected HEK-293T cells [1]: 14 ng/mL
EC50: concentration of ADA (0.1 ng/ml to 10 ug/ml) providing half-maximal increase in binding of 2.2 nM [3H]ZM 241385 to membranes of transfected HEK-293T cells [2]: 4 ng/mL
